Tests used:
[1] = target: T1, FcγRIIa H (human, UniProt P12318 34-217); test: ratio of He/Con_2aH to He/Con_2b (FcγRIIb); SPR
T1 construct: extracellular domain; also called FcγRIIa type H; 2aH
T1 sequence (looked up): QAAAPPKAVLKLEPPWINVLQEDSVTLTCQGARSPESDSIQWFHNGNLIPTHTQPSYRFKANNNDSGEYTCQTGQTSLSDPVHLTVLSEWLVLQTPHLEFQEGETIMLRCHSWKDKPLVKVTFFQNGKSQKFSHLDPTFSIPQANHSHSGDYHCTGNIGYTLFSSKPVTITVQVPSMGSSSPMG

[2] = target: T1, FcγRIIa H; test: SPR (Biacore), captured antibody, FcγR as analyte; GpH7-A5/GpH7-B3/GpL16-k0 = 100
Description: (§1) The heterodimerized antibodies He Abs in which one of the H chains was introduced with an alteration were assayed for their binding activities to each activating FcγR and inhibitory FcγR according to the method described in Example 4. […] The activating FcγRs in FIGS. 26, 27, 28, and 29 are FcγRIa, FcγRIIa (R), FcγRIIa (H), and FcγRIIIa, respectively.
(§2) Analysis of interaction between objective antibody and the FcγR was carried out using Biacore T100 (GE Healthcare). HBS-EP+ (GE Healthcare) was used as the running buffer, and the measurement temperature was set to 25° C. Chips produced by immobilizing the antigen peptide by the amine coupling method to a Series S Sencor Chip CM5 (GE Healthcare), or alternatively, chips produced by allowing preliminarily biotinylated antigen peptides to interact with and immobilize onto a Series S Sensor Chip SA (certified) (GE Healthcare) were used. Antibodies of interest were captured onto an antigen peptide-immobilized chip, and allowed to interact to each FcγR diluted with running buffer. To regenerate and repeatedly use the chip, the antibodies captured on the chip were washed off by reacting 10 mM glycine-HCl, pH 1.5.

[3] = target: T2, FcγRIIb (human, UniProt P31994 43-217); test: as above
T2 construct: extracellular domain; also called 2b; FcgRIIb
T2 sequence (looked up): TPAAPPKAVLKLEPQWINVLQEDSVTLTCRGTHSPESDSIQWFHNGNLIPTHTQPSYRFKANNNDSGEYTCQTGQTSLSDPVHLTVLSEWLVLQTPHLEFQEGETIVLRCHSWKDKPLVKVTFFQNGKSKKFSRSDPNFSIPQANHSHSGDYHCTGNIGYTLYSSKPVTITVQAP
Description: as §1, §2

Binder	He_2aH/2b (IIaH/IIb ratio) [1]	He/Con_2aH (relative binding) [2]	He/Con_2b (relative binding) [3]
GpH7-A5/GpH7-B3 variant D270_01G/GpL16-k0 (antibody, human IgG1, kappa, Heterodimerized anti-glypican-3 IgG1 (He Ab); mutation in the B3 H chain only; also called He Ab) heavy 1: not shown heavy 2: not shown light: DIVMTQSPLSLPVTPGEPASISCQASESLVHSNRNTYLHWYLQKPGQSPQLLIYKVSNRFSGVPDRFSGSGSGTDFTLKISRVEAEDVGVYYCSQNTHVPPTFGQGTKVEIERTVAAPSVFIFPPSDEQLKSGTASVVCLLNNFYPREAKVQWKVDNALQSGNSQESVTEQDSKDSTYSLSSTLTLSKADYEKHKVYACEVTHQGLSSPVTKSFNRGEC	1.72	52.5%	30.5%
GpH7-A5/GpH7-B3 variant D270_02A/GpL16-k0 (antibody, human IgG1, kappa, Heterodimerized anti-glypican-3 IgG1 (He Ab); mutation in the B3 H chain only; also called He Ab) heavy 1: not shown heavy 2: not shown light: DIVMTQSPLSLPVTPGEPASISCQASESLVHSNRNTYLHWYLQKPGQSPQLLIYKVSNRFSGVPDRFSGSGSGTDFTLKISRVEAEDVGVYYCSQNTHVPPTFGQGTKVEIERTVAAPSVFIFPPSDEQLKSGTASVVCLLNNFYPREAKVQWKVDNALQSGNSQESVTEQDSKDSTYSLSSTLTLSKADYEKHKVYACEVTHQGLSSPVTKSFNRGEC	1.58	76.4%	48.3%
GpH7-A5/GpH7-B3 variant D270_03V/GpL16-k0 (antibody, human IgG1, kappa, Heterodimerized anti-glypican-3 IgG1 (He Ab); mutation in the B3 H chain only; also called He Ab) heavy 1: not shown heavy 2: not shown light: DIVMTQSPLSLPVTPGEPASISCQASESLVHSNRNTYLHWYLQKPGQSPQLLIYKVSNRFSGVPDRFSGSGSGTDFTLKISRVEAEDVGVYYCSQNTHVPPTFGQGTKVEIERTVAAPSVFIFPPSDEQLKSGTASVVCLLNNFYPREAKVQWKVDNALQSGNSQESVTEQDSKDSTYSLSSTLTLSKADYEKHKVYACEVTHQGLSSPVTKSFNRGEC	1.56	61.8%	39.5%
GpH7-A5/GpH7-B3 variant D270_04F/GpL16-k0 (antibody, human IgG1, kappa, Heterodimerized anti-glypican-3 IgG1 (He Ab); mutation in the B3 H chain only; also called He Ab) heavy 1: not shown heavy 2: not shown light: DIVMTQSPLSLPVTPGEPASISCQASESLVHSNRNTYLHWYLQKPGQSPQLLIYKVSNRFSGVPDRFSGSGSGTDFTLKISRVEAEDVGVYYCSQNTHVPPTFGQGTKVEIERTVAAPSVFIFPPSDEQLKSGTASVVCLLNNFYPREAKVQWKVDNALQSGNSQESVTEQDSKDSTYSLSSTLTLSKADYEKHKVYACEVTHQGLSSPVTKSFNRGEC	1.42	75.4%	53.1%
GpH7-A5/GpH7-B3 variant D270_06M/GpL16-k0 (antibody, human IgG1, kappa, Heterodimerized anti-glypican-3 IgG1 (He Ab); mutation in the B3 H chain only; also called He Ab) heavy 1: not shown heavy 2: not shown light: DIVMTQSPLSLPVTPGEPASISCQASESLVHSNRNTYLHWYLQKPGQSPQLLIYKVSNRFSGVPDRFSGSGSGTDFTLKISRVEAEDVGVYYCSQNTHVPPTFGQGTKVEIERTVAAPSVFIFPPSDEQLKSGTASVVCLLNNFYPREAKVQWKVDNALQSGNSQESVTEQDSKDSTYSLSSTLTLSKADYEKHKVYACEVTHQGLSSPVTKSFNRGEC	1.54	74.4%	48.2%
GpH7-A5/GpH7-B3 variant D270_07I/GpL16-k0 (antibody, human IgG1, kappa, Heterodimerized anti-glypican-3 IgG1 (He Ab); mutation in the B3 H chain only; also called He Ab) heavy 1: not shown heavy 2: not shown light: DIVMTQSPLSLPVTPGEPASISCQASESLVHSNRNTYLHWYLQKPGQSPQLLIYKVSNRFSGVPDRFSGSGSGTDFTLKISRVEAEDVGVYYCSQNTHVPPTFGQGTKVEIERTVAAPSVFIFPPSDEQLKSGTASVVCLLNNFYPREAKVQWKVDNALQSGNSQESVTEQDSKDSTYSLSSTLTLSKADYEKHKVYACEVTHQGLSSPVTKSFNRGEC	1.54	64%	41.5%
GpH7-A5/GpH7-B3 variant D270_08L/GpL16-k0 (antibody, human IgG1, kappa, Heterodimerized anti-glypican-3 IgG1 (He Ab); mutation in the B3 H chain only; also called He Ab) heavy 1: not shown heavy 2: not shown light: DIVMTQSPLSLPVTPGEPASISCQASESLVHSNRNTYLHWYLQKPGQSPQLLIYKVSNRFSGVPDRFSGSGSGTDFTLKISRVEAEDVGVYYCSQNTHVPPTFGQGTKVEIERTVAAPSVFIFPPSDEQLKSGTASVVCLLNNFYPREAKVQWKVDNALQSGNSQESVTEQDSKDSTYSLSSTLTLSKADYEKHKVYACEVTHQGLSSPVTKSFNRGEC	1.41	75.8%	53.6%

From patent US20150344570A1 (published 2015)
